Results from patent publication US20220305081A1.

Biological target: human SIRPγ (signal regulatory protein gamma), expressed on cells (human) (UniProt Q9P1W8)
Experiment: cell-based or functional assay

Sequence of UniProt Q9P1W8 (Q9P1W8 29-387): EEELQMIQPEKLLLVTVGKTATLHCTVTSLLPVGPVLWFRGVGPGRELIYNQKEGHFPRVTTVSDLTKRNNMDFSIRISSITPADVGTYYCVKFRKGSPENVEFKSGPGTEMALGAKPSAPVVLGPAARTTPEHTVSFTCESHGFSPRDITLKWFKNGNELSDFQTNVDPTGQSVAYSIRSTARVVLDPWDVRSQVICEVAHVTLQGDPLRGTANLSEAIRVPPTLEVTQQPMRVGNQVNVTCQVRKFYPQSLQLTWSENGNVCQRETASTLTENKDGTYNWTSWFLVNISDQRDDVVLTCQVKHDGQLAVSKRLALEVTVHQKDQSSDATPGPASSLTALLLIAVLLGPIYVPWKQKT

level of IFNγ secreted by T cells, relative to OX119-treated cells: > 6 fold
level of IFNγ secreted by T cells, relative to cells treated with LSB2.20: 2 fold
Substance: anti-SIRPγ monoclonal antibody clone OX117
